{"source": "paper PMC4794675", "about": "(Journal of Virology, 2016)", "binders": {"B1": {"name": "MAb AP33 (broadly neutralizing mouse monoclonal antibody) (antibody, V domains shown)", "VH": "EVQLQESGPSLVKPSQTLSLTCSVTGDSITSGYWNWIRKFPGNKLEYMGYISYSGSTYYNLSLRSRISITRDTSKNQYYLQLNSVTTEDTATYYCALITTTTYAMDYWGQGTSVTVSS", "VL": "NIVLTQSPVSLAVSLGQRATISCRASESVDGYGNSFLHWFQQKPGQPPKLLIYLASNLNSGVPARFSGSGSRTDFTLTIDPVEADDAATYYCQQNNVDPWTFGGGTKLEIK"}, "B2": {"name": "Fab fragment of AP33 (Fab, V domains shown)", "VH": "EVQLQESGPSLVKPSQTLSLTCSVTGDSITSGYWNWIRKFPGNKLEYMGYISYSGSTYYNLSLRSRISITRDTSKNQYYLQLNSVTTEDTATYYCALITTTTYAMDYWGQGTSVTVSS", "VL": "NIVLTQSPVSLAVSLGQRATISCRASESVDGYGNSFLHWFQQKPGQPPKLLIYLASNLNSGVPARFSGSGSRTDFTLTIDPVEADDAATYYCQQNNVDPWTFGGGTKLEIK", "notes": "source: papain digestion of purified IgG; Fc removed on protein G, gel filtration"}, "B3": {"name": "MAb C2 (mouse monoclonal antibody against C-epitope I) (antibody, V domains shown)", "VH": "EVQLQQPGAELVRPGGSVKLSCKASGYSFTTYWMNWVKQRPGQGLEWIGMIQPSDSETRLNQKFKDKATLTLDRSSSTVYMQLSSPTSDDSAVYYCARTGRGDAWLTYWGQGTSVTVSS", "VL": "NIVLTQSPVSLAVSLGQRATISCRASKSVSTSGYSYMHWYQQKPGQPPRLLLYLGSNLESGVPARFSGSGSGTDFTLNIHPVEEEDAATYYCQHIRELTRSFGGGTKLEIK", "notes": "source: also used as hybridoma supernatant"}, "B4": {"name": "Fab fragment of the C2 antibody (Fab, V domains shown)", "VH": "EVQLQQPGAELVRPGGSVKLSCKASGYSFTTYWMNWVKQRPGQGLEWIGMIQPSDSETRLNQKFKDKATLTLDRSSSTVYMQLSSPTSDDSAVYYCARTGRGDAWLTYWGQGTSVTVSS", "VL": "NIVLTQSPVSLAVSLGQRATISCRASKSVSTSGYSYMHWYQQKPGQPPRLLLYLGSNLESGVPARFSGSGSGTDFTLNIHPVEEEDAATYYCQHIRELTRSFGGGTKLEIK", "notes": "as for B2"}}, "key": {"[1]": {"biological_target": "T1, Soluble E2 (sE2), amino acids 384 to 661 of HCV genotype 1a strain H77 (Hepatitis C virus genotype 1a, H77, UniProt P27958)", "T1 construct": "source: High Five insect cells, recombinant baculovirus, secreted, purified (Ni-nitrilotriacetic acid chromatography)", "T1 sequence (P27958 384-661)": "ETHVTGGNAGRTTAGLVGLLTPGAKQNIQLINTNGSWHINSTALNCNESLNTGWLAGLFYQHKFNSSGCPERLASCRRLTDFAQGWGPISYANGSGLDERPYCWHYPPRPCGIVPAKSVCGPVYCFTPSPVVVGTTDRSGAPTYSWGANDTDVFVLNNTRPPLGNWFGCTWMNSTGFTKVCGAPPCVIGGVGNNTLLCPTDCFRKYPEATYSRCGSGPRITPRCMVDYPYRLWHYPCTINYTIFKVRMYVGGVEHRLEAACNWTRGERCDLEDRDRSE", "experiment": "SPR; Biacore 3000, sE2 immobilised on CM5 by amine coupling; MAbs or Fabs injected; HBS pH 7.2, 25°C, 20 μl/min; 1:1 Langmuir fit", "settings": "both partners purified"}, "[2]": {"biological_target": "T2, full-length (FL) E2 protein (Hepatitis C virus; strain of this …)", "T2 construct": "source: HEK293T, transfected, in clarified lysate", "T2 sequence (P27958 384-746)": "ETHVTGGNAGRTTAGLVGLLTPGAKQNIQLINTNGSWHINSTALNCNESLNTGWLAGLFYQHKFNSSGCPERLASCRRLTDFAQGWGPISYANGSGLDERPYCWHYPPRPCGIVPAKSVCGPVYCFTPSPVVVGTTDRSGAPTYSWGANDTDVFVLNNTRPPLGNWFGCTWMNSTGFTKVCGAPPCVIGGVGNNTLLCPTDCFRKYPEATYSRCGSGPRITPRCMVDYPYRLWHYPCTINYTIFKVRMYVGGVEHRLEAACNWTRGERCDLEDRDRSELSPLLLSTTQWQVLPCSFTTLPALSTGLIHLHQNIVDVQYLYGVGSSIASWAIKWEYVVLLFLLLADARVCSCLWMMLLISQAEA", "experiment": "ELISA", "settings": "one partner purified"}, "[3]": {"biological_target": "T3, E1E2 heterodimer (E1E2 glycoprotein) (Hepatitis C virus; strain of this …)", "T3 construct": "source: HEK293T, transfected, in clarified lysate", "experiment": "ELISA", "settings": "one partner purified"}, "[4]": {"biological_target": "T4, sE2 expressed in mammalian cells (HEK293T lysate) (Hepatitis C virus; strain of this …)", "T4 construct": "also called mammalian cell-expressed sE2; source: HEK293T, transfected, in clarified lysate", "experiment": "ELISA", "settings": "one partner purified"}, "[5]": {"biological_target": "T5, BSA2 (glutaraldehyde-self-conjugated BSA) (Bos taurus, UniProt P02769)", "T5 construct": "bovine serum albumin; also called BSA2 control; source: BSA self-conjugated with 0.2% glutaraldehyde, dialysed", "T5 sequence (P02769 25-607)": "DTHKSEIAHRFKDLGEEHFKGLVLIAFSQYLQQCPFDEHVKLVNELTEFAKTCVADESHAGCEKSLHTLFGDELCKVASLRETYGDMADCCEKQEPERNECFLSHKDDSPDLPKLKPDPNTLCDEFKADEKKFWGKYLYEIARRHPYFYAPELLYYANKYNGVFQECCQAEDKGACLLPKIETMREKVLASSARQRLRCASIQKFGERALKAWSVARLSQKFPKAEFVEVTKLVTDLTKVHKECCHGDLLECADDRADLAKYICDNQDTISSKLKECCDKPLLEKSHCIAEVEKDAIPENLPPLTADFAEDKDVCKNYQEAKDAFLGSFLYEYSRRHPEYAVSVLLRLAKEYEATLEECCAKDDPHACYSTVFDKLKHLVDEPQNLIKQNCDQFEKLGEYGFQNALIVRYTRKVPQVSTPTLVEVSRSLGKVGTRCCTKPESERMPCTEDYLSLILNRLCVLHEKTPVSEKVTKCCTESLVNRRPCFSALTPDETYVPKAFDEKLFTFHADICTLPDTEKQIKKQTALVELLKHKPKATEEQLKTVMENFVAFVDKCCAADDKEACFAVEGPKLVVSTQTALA", "experiment": "ELISA", "settings": "both partners purified"}}}
{"binder": "B1", "values": [{"measurement": "Kd", "setting": "[1]", "value": 0.142, "unit": "nM"}, {"measurement": "koff", "setting": "[1]", "value": "6.4e-05", "unit": "s⁻¹"}, {"measurement": "kon", "setting": "[1]", "value": 649000, "unit": "M⁻¹ s⁻¹"}, {"measurement": "binding result", "setting": "[2]", "value": "binds"}, {"measurement": "binding result", "setting": "[3]", "value": "binds"}, {"measurement": "binding result", "setting": "[4]", "value": "binds"}]}
{"binder": "B2", "values": [{"measurement": "Kd", "setting": "[1]", "value": 0.72, "unit": "nM"}, {"measurement": "koff", "setting": "[1]", "value": 0.000147, "unit": "s⁻¹"}, {"measurement": "kon", "setting": "[1]", "value": 230000, "unit": "M⁻¹ s⁻¹"}]}
{"binder": "B3", "values": [{"measurement": "Kd", "setting": "[1]", "value": 49.8, "unit": "nM"}, {"measurement": "koff", "setting": "[1]", "value": 0.000848, "unit": "s⁻¹"}, {"measurement": "kon", "setting": "[1]", "value": 18800, "unit": "M⁻¹ s⁻¹"}, {"measurement": "binding result", "setting": "[5]", "value": "no binding"}]}
{"binder": "B4", "values": [{"measurement": "Kd", "setting": "[1]", "value": 301, "unit": "nM"}, {"measurement": "koff", "setting": "[1]", "value": 0.00463, "unit": "s⁻¹"}, {"measurement": "kon", "setting": "[1]", "value": 12800, "unit": "M⁻¹ s⁻¹"}]}
